The values below are quoted from earlier work in patent US20250333489A1 (ANDREMACON S.R.L., priority 2021, published 2025).

The Kd is the constant that tells how readily two partners part at equilibrium.

The data set deals with T1, EphB4 (Homo sapiens, UniProt P54760).
T1 sequence (P54760 16-987): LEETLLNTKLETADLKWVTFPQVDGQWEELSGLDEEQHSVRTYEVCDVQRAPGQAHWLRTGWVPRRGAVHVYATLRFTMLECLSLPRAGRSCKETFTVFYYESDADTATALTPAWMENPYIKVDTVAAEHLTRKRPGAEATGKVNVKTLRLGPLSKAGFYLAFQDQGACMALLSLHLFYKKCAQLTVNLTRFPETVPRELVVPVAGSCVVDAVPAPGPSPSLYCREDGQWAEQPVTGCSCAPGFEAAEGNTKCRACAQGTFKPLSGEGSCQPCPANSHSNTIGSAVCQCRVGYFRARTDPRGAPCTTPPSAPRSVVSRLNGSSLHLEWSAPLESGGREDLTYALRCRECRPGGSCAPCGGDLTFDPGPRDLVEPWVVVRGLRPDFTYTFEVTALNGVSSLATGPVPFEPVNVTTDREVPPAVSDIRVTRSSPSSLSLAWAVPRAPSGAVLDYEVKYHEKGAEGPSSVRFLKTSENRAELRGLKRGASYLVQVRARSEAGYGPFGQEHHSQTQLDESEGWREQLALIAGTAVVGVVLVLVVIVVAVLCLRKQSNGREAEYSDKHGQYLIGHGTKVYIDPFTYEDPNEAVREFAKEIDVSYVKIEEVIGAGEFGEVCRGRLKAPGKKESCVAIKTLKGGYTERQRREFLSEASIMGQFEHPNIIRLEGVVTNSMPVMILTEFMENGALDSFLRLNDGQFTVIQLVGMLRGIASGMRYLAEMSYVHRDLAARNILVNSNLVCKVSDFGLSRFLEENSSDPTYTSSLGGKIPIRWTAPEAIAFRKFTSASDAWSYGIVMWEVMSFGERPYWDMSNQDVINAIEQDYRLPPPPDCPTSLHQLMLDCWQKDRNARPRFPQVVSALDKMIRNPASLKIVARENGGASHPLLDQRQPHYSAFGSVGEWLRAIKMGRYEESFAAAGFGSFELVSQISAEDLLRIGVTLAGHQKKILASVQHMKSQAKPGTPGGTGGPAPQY
The settings on record: read-out: binding affinity of Epo for EphB4 (KD).

Consider “Epo: 30.4 kDa glycoprotein produced and secreted mainly by the kidneys; main erythropoietic hormone”, for which the dissociation constant Kd is 880 nM.
